The assay addresses proton-dissociation-permeated sodium channel (PDPNaC1) (Scolopendra subspinipes mutilans). As to the kind of experiment: cryo-EM structure; purified PDPNaC1 in LMNG/CHS, pH 8.0, 4.0 mg/mL; 121,831 particles, C3 symmetry, 3.03 Å; closed (non-conductive) state.

These results are taken from PMC12714832.

For the substance “proton-dissociation-permeated sodium channel (PDPNaC1) (natural protein)”, the stoichiometry N (in general, the number of molecules, sites or subunits per partner or assembly) is 3.
